Source: patent US8569578B1, “Generating transgenic potatoes with novel resistance to potato cyst nematodes by silencing nematode parasitism genes of CLE -1 and CLE-4s” (The United States of America, as represented by the …, priority 2009, dated 2013)
Entries after “also recorded” stand apart in the source; their conditions may differ.

B1: Gr-CLE-1: G. rostochiensis CLE gene, cDNA SEQ ID NO: 1, encoding a 204 amino acid secreted protein with four CLE motifs (nucleic acid, listed as Globodera rostochiensis)
DNA: TATTAATATTGACTAATTTTTTTTTACAAACATATTAATATTGACTAAAAAAATTGATTTTAATAACGACTATAGATATTACTTATGGAGCAACAAAAATCGTCATATTTCCCATCAAATTCAAATAAAACAATCTCTCCAATAAAGTAAATATGGCCAAGAACGCAATGCTTTGCCTGCTGATTTTGAGCGTTGTTCTTGCTCTCGCATTTGCTACAAATGAAAAGGATGATAAAGAAGCGGGGAACCTTTCGACCGGCATTTTTGGAAAGGCCGGAAGATTTGTGACCGTGGCACTTGCGATGTCGTCTCGTCTGGGAGGGGCTGGCGCATCCCAAGGAGGTGGAGCTGTACATGGAGAAAGCTTGAAATCCAATCAATTGCAAAACGCCTATCGGATGGCGCTTCCTCCTCCAATGCAAATAAAAAGTGCCGAAATTGACGGATGGAAACCGTCTCCTGATGAATATCTTAAAAAATTTGCTCAAGAATTTCGCCGAAACACCGGTATGAAACCCCAGTCGTATAATGAAGAGAAGCGTGTAACGCCGGGAGGGCCCGACCCACTACATAACCGTGAAAAAATTCTGGAAGAACAGAAGCGTGTAACGCCGGGAGGGCCTGACCCACTACATAACCGTGAAAAAACTCTGGAAGAACAGAAGCGTGTAACGCCGGGAGGGCCTGACCCACTACATAACCGTGAAAAAACTCTGGAAGAACAGAAGCGTGTAACGCCGGGAGTGCCCGACCGACAACATCGCTGAGGCAATACAAAAAGAGTGAAAGAAAATCGACGGATGTCTTTAGTAATTTCAATTCGTTCCTATCTTTCTCGTTCTGAAGACCAAATATCGATGATGTTAATGTTATGTTCGGAAAACAATTTCTGATATGCGCACACTTGGCA
B2: Gr-CLE-4-B: G. rostochiensis CLE gene of class Gr-CLE-4, cDNA SEQ ID NO: 4 (nucleic acid, listed as Globodera rostochiensis)
DNA: ATCATAATTTCCAAAATCCCAATAAAAGCTTCCTCAATAAAGTAAATATGGCCACGAACACAATGCTTTGCCTGTTAATTTTGAGCGTTGTTCTCGCTCTCGCATTTGCTACGAATAAAAAGGGTGATGAAGAACCGGAGAACCATTCGACCGGCATTTTTGGAAAGGTCGGACGAGTTGTGACCGTGGCACTTGCGATGTCGTCTCGTCTGGGAGGGGCTGACGCAACCCGAGGAGGTGGAGCTGTATATGGAGGAAACTTGAAATCCAATCTATTGCCAAACAACAATTGGATGGCGCCACCTCCTCCAATGGCAATGAGAAGTGCCAAAGTCTATGATTCGAAACATTCTCCTGCTGAATATCTTAAAAAATTTGCTCAAGACTTTCGCCGAAAAACCGGCATGCACTCCCAGCGGCATCACGAAGAAACAACACTGGAACAGGAGAAGCGTGTAGCGGGAGCTGGTCCCGACCCAATACATCACCAAGATACAACACTGGAACAGGAGAAGCGTGCAGTCCCAGCTGGGCCCGACCCAAAACATCACGAAGAAACAACACTGGAACAGGAGAAGCGTGCAGTCCCAGCTGGGCCCGACCCAAAACATCACGAAGAAACAACACTGGAACAGGAGAAGCGTGCAGTCCCAGCTGGGCCCGACCCAAAACATCACGAAGAAACAACATTTGAACAGGAGAAGCGTGGTGCGCCAGCTGGGCCCGACCCAATACATCACTGATGCTCTTATTCACAATGCTAAAATATCTGTAGACTATAGATAAATTGCTAGCAACAGATAAATGCCTGATCATAATGCTATGGCTAAGGTATCCGTATTCCGAACTAGCAATATAAGCGCATGCGTAGCTCTATCCATTTAATTTCACAATCTAAAGATTAAAATCTGCAGATATCTAGCTGTAGCTGGGCTATCTGCGGATGGAAAAATCGGCATTCTTAATATAATTTTTAATTGCTTAATAAACTTCAATAAAA

Tests used:
[1] = tested on: Arabidopsis clv3-2 mutant plants; experiment: complementation of clv3-2 mutant by Gr-CLE genes under CLV3 promoter; type: in vivo; conditions: gene under control of CLV3 promoter in clv3-2
Description: Gr-CLE proteins can completely or partially replace CLV3 activity within meristems. For the complementation study, Gr-CLE genes were subcloned into pBU14 under the control of the CLV3 promoter (Brand et al. 2002. Plant Physiol. 129:565-575). To generate the PCLV3:Gr-CLE-1 construct, primer pair of CLE1-spF and CLE1-TGAxbaR was used. To generate PCLV3:Gr-CLE-4-B and PCLV3:Gr-CLE-4-C constructs, primer pair of CLE4B1-spF and 4B1-TGAxbaR was used. Each amplified PCR product was cloned into pBU14 at BamHI and XbaI sites. Arabidopsis clv3-2 mutant plants were transformed with A. tumefaciens GV3101 harboring each of the above constructs.
All transformants were selected on ½×MS medium containing 50 μg/mL of kanamycin (Sigma-Aldrich) (for the pMD1 vector) or 30 μg/mL of glufosinate ammonium (Fisher, Pittsburgh, Pa., U.S.A.) (for the pBU14 vector) and transgenic Arabidopsis plants were then cultivated at 24° C. for 16 h of light and 8 h of dark in a growth room. For measuring the root growth rate, transgenic plants expressing individual Gr-CLE genes or the empty vector were first selected on kanamycin containing medium for five days, then transferred to ½×MS plates and cultured vertically at 24° C. for 16 h of light and 8 h of dark in a growth chamber (Percival, Perry, Iowa, U.S.A.).
Gr-CLE-1, Gr-CLE-4-B, and Gr-CLE-4-C were the most representative Gr-CLE genes identified. To determine if these genes could replace CLV3 activity in the shoot and floral meristems, the full-length sequences of these three genes were cloned under the control of the CLV3 promoter and introduced into Arabidopsis clv3-2 mutant plants. clv mutants have enlarged shoot and floral meristems that lead to shoot fasciation and formation of extra floral organs including an increase in carpel number (Clark et al. 1993, 1995; Kayes and Clark 1998). For example, flowers of a clv3-2 mutant usually have six to seven carpels in the fourth whorl (Clark et al. 1995), whereas wild-type flowers have only two carpels in the fourth whole. Carpel number is a sensitive measurement for meristem size (Clark et al. 1993; Ni and Clark 2006). Multiple independent transgenic lines for each transgene were obtained and analyzed (Table 2).

potato hairy roots = experiment: overexpression of Gr-CLE genes in potato hairy roots; type: in vivo; conditions: measured at 4, 6, 8 and 10 days after dissecting; compared with vector control
Description: To examine root meristems, primary root tips were excised from peptide treated Arabidopsis seedlings or from transgenic potato hairy roots and immediately mounted in water onto a glass slide. Roots were examined under an Olympus BX-50 microscope equipped with Nomarski optics and images were captured using a QImaging Retiga EXi digital CCD camera (QImaging, Surrey, BC, Canada). The root apical meristem (RAM) regions of individual primary roots that covered the distance from the position around the quiescent center to the position where elongated root cells immediately follow cytoplasm-dense meristematic cells were measured microscopically. The collected data were analyzed using the MetaMorph imaging analysis software (Universal Imaging Corporation, Downingtown, Pa., U.S.A.)
A. rhizogenes strain 15834 was transformed with individual transgene constructs of interest and used for the generation of potato hairy roots as described previously (Wang et al. 2007. Mol. Plant Pathol. 8:423-436) with some modifications. Potato stem pieces from tissue cultures were incubated with the transformed A. rhizogenes cell suspension for 10 mins, then transferred onto the callus induction medium containing 1×MS salts (Sigma-Aldrich), 26.7 μM Glycine, 4 μM Nicotinic Acid, 2.4 μM Pyridoxine HCL (Sigma-Aldrich), 1.2 μM Thiamine HCL (Sigma-Aldrich), 0.5 μM Folic Acid, 0.2 μM d-biotin (Sigma-Aldrich), 0.01% Myo-inositol (Acros, Morris Plains, N.J., U.S.A.), 3% sucrose, 0.001% 6-BAP (Sigma-Aldrich), 0.002% NAA (Sigma-Aldrich), and 1% agar and cultivated for four days at 24° C. without light. The infected stem pieces were then cultured on the propagation medium containing 1×MS salts, 1.2 mM NaH2PO4, 0.01% Myo-inositol, 0.1% Thiamine HCl, 3% sucrose, 1% agar, 50 μg/mL of kanamycin, and 238 μg/mL of timentin (GlaxoSmithKline). Timentin was used to inhibit the growth of A. rhizogenes 15834 and kanamycin was added to select for transformed roots. Approximately 12-15 days after root emergence, 1 cm-long root tips were dissected and cultured on vertical plates containing the propagation medium with 119 μg/mL of timentin and the root growth rate was measured at different time points.

Row | Molecule | average number of carpels in flowers and siliques [1] | rescue of clv3-2 meristem defects [1] | length of primary roots of transgenic potato hairy root lines (potato hairy roots)
1 | B1 | three to four | partial rescue | short root phenotype; also recorded: much shorter
2 | B2 | two | nearly complete rescue | short root phenotype
